This experiment concerns the target TNFR1 on L929 cells (UniProt P25118). Description: cell-based or functional assay.
Sequence of UniProt P25118 (P25118 30-454 limits assumed): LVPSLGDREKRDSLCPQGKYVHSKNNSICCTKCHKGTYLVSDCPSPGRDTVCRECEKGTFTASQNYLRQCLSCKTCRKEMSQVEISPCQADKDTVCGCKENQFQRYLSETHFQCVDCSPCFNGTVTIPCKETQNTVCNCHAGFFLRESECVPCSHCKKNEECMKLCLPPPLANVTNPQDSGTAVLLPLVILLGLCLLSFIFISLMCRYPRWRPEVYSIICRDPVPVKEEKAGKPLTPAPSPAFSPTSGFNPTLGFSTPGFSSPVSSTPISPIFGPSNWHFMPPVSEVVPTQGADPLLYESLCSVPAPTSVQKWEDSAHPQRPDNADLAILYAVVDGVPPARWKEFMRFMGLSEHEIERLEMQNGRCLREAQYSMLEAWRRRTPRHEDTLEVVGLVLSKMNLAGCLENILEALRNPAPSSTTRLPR
In turn, “PRINT PEG5K scTNF-α (N-terminally mono-PEGylated with PEG-5000) (ligand)” returned an EC50 of cytotoxic activity against L929 cells of 0.00058 ng/mL.
Same read-out and setting: the value for “PRINT PEG20K scTNF-α (N-terminally PEGylated with PEG-20000) (ligand)” was 0.00062 ng/mL; that for “citraconylated scTNF-α (lysine side chains globally blocked with citraconic anhydride) (ligand)” was 0.0076 ng/mL.
Substance “randomly PEGylated scTNF-α (direct conjugation with PEG NHS ester) (ligand)” showed an EC50 of cytotoxic activity against L929 cells of 0.0046 ng/mL and a loss of activity against unmodified scTNF-α (L929 cytotoxicity) of 10 fold.
“unmodified single-chain TNF-α (scTNF-α), His tag cleaved (ligand)” had an EC50 of cytotoxic activity against L929 cells of 0.00035 ng/mL.

Values taken from US20200237923A1.
